Test results taken from the supplement of paper PMC9170038.

Tests used:
[1] = test system: MS2 coat protein; experiment: apparent KD of MS2 coat protein; designed switch direction (-1 OFF switch, 1 ON switch): 1; higher = weaker reporter binding
How it was run: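 Stalled E. coli RNA polymerase transcribed designed RNA switches on Illumina chips, which were then titrated with SNAP-549-labelled MS2 coat protein, doubling from 0.7 or 1.5 nM to 3 µM. Steps lasted from 0.8–1.5 h at the lowest concentration to 10–20 min at the highest. The apparent KD is each design's median over clusters of curve-fitted normalised fluorescence.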

[2] = test system: MS2 coat protein; experiment: apparent KD of MS2 coat protein; higher = weaker reporter binding; settings: Eterna round: R107
How it was run: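 Illumina sequencing clusters served as templates for on-chip transcription of the designed RNA switches. SNAP-549-labelled MS2 coat protein was then titrated in twofold steps from 0.7 or 1.5 nM to 3 µM, allowing 0.8–1.5 h per step at first and 10–20 min per step later. The buffer held 100 mM Tris-HCl pH 7.5, 80 mM KCl and 4 mM MgCl2, without or with constant ligand. Apparent KD is the median per design of normalised cluster binding-curve fits.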

[3] = input ligand: theophylline 20 uM
[4] = input ligand: tryptophan 2.4 mM
[5] = input ligand: theophylline 2 mM

Sequence: GCUCGACGUACGGCCUACAUGAGGAUCACCCAUGUGACUGGGCAGGAUAUCUAAAUGCAGAAUGUAGAGAAGGGCCCGUCGAGC [SameState NG3 #50] (Eterna round: R96, puzzle: Same State NG 3)
- apparent KD of MS2 coat protein ([1]; input ligand: FMN 200 uM): 323 nM
- apparent KD of MS2 coat protein ([1]; input ligand: microRNA oligo, concentration not stated): 35.9 nM
- apparent KD of MS2 coat protein ([1]; input ligand: none): 384 nM

Sequence: ACCUAAGCCACAGAUACCAGAGUAAUAGGCCAAUUUCAAAACAUGAGGAUCACCCAUGUACUCCCUUGGCAGCUGCGAAUCGAAA [theeternabot_exclusion_MS2_Theo_B_30]
- apparent KD of MS2 coat protein ([2]; input ligand: arginine 13.2 mM): 11.1 nM
- apparent KD of MS2 coat protein [2, 3]: 13.6 nM
- apparent KD of MS2 coat protein [2, 4]: 10.3 nM

Sequence: UACAGCAGUACGGCCGCCACUCUAAGAUUGCGCGUUUAGGCCAUACAUGAGGAUCACCCAUGUCCGAGGACCGGGUACAGGAAUU [theeternabot_sameState_MS2_Trp_B_29]
- apparent KD of MS2 coat protein ([2]; input ligand: arginine 13.2 mM): 88.3 nM
- apparent KD of MS2 coat protein ([2]; input ligand: none): 185 nM
- apparent KD of MS2 coat protein [2, 3]: 416 nM
- apparent KD of MS2 coat protein [2, 5]: 502 nM
- apparent KD of MS2 coat protein [2, 4]: 89.2 nM

Sequence: ACAUGAGGAUCACCCAUGUUGAGCACAGAAGGAGCGUGAUUAAGCACAGGUAGGUCGCUGUACUUAUCGAGCGUUAGCUCGAUAC [JR_Nu_SSArginiA_Sub030]
- apparent KD of MS2 coat protein ([2]; input ligand: arginine 13.2 mM): 21 nM
- apparent KD of MS2 coat protein ([2]; input ligand: none): 22.3 nM
- apparent KD of MS2 coat protein [2, 3]: 32.6 nM
- apparent KD of MS2 coat protein [2, 5]: 28.3 nM
- apparent KD of MS2 coat protein [2, 4]: 22.8 nM

Sequence: GGAGUAGGAAACUAUUCCAAUCCUCGUGAACGAGGACCGGUACGGCCGCCACUCGAUAAAUAAAUACAUGAGGAUCACCCAUGUU [Ex Tryptophan A 23]
- apparent KD of MS2 coat protein ([2]; input ligand: arginine 13.2 mM): 38 nM
- apparent KD of MS2 coat protein [2, 3]: 71.4 nM
- apparent KD of MS2 coat protein [2, 5]: 82.1 nM

Sequence: GGGCCCGGGCCGCGCGCGGCCCGGGCCCAACGAGGACCGGUACGGCCGCCACUCGAACGAGUGGGUACAUGAGGAUCACCCAUGU [Aaa]
- apparent KD of MS2 coat protein ([2]; input ligand: arginine 13.2 mM): 25.7 nM
- apparent KD of MS2 coat protein ([2]; input ligand: none): 27 nM
- apparent KD of MS2 coat protein [2, 3]: 41.8 nM
- apparent KD of MS2 coat protein [2, 5]: 45 nM
- apparent KD of MS2 coat protein [2, 4]: 33.3 nM

Sequence: GGACUAACUGGAAGGAGCGACACGCAGAAACUGCAAUUUCCUCCACACGAGGAUCACCCGUGUCAGGUAGGUCGCCAGUUAGUCG [ArgBX 29]
- apparent KD of MS2 coat protein ([2]; input ligand: arginine 13.2 mM): 31.3 nM
- apparent KD of MS2 coat protein ([2]; input ligand: none): 39.1 nM
- apparent KD of MS2 coat protein [2, 3]: 52 nM
- apparent KD of MS2 coat protein [2, 5]: 57 nM
- apparent KD of MS2 coat protein [2, 4]: 40.9 nM

Sequence: AGACAUGAGGAUCACCCAUGUAGUACGGAUACCAGAUCCAGAUGCAUCCCUUGGCAGCUGUGGUACAGCGUUACAUCGCUCGUAG [Exclusion - Theophylline A (Freestyle 22)]
- apparent KD of MS2 coat protein ([2]; input ligand: arginine 13.2 mM): 17 nM
- apparent KD of MS2 coat protein [2, 3]: 23.9 nM
- apparent KD of MS2 coat protein [2, 4]: 18.8 nM

Sequence: GUCGGUACGUCGGCAAAGCCGAUGUGCCAGCGAGGACCGGUACGGCCGCCACUCGUACAUGAGGAUCACCCAUGUCCGGUCCGAC [Omei Trp SS A C v4]
- apparent KD of MS2 coat protein ([2]; input ligand: arginine 13.2 mM): 44.7 nM
- apparent KD of MS2 coat protein ([2]; input ligand: none): 134 nM
- apparent KD of MS2 coat protein [2, 3]: 139 nM
- apparent KD of MS2 coat protein [2, 5]: 169 nM
- apparent KD of MS2 coat protein [2, 4]: 155 nM

Sequence: UGUAUGGACUGAAGGAGCGGGUUGAUAACAUGAGGAUCACCCAUGUAAAAGGCGAAAGCCGCCCAGGUAGGUCGCAGUCCAUACU
- apparent KD of MS2 coat protein ([2]; input ligand: arginine 13.2 mM): 4.19 nM
- apparent KD of MS2 coat protein ([2]; input ligand: none): 10.1 nM
- apparent KD of MS2 coat protein [2, 3]: 19.5 nM
- apparent KD of MS2 coat protein [2, 5]: 13.1 nM
- apparent KD of MS2 coat protein [2, 4]: 10.9 nM

Sequence: CACGAAAGAUCGGCCGCCACUAAUCGAUGUGUUCUUUCACAUGAGGAUCACCCAUGUUCUUGCGUUAGGACCGGGAUUGAGCGUG [#01 Exclusion Tryptophan B]
- apparent KD of MS2 coat protein ([2]; input ligand: arginine 13.2 mM): 32.1 nM
- apparent KD of MS2 coat protein [2, 3]: 50.1 nM
- apparent KD of MS2 coat protein [2, 5]: 52.4 nM

Sequence: GGAUAGGACACGGCCGCCACUACCUAGGAUACUAGAAACAUUUCCUCACAUGAGGAUCACCCAUGUAGGACCGGGUGUCCUAUCG
- apparent KD of MS2 coat protein ([2]; input ligand: arginine 13.2 mM): 106 nM
- apparent KD of MS2 coat protein [2, 3]: 284 nM
- apparent KD of MS2 coat protein [2, 5]: 351 nM
